Results taken from US20240181074A1, “PEGYLATED T CELL ENGAGER WITH DUAL SPECIFICITIES TO CD3 AND CD19” (Shenzhen Enduring Biotech, Ltd., priority 2021, published 2024).

What was measured:
EAE model = conditions: cited from earlier work
Breg cells = Breg cells in spleen of EAE animals (PE-anti-CD19 / FITC-B10 flow cytometry); format: in vivo, mice
Source text: The seemed contradictory results prompted us to see what happened to other related immune cells after JY108 treatment. Using the method described in Example 5, the spleen cells derived from the animals in the EAE experiment were double stained with PE-anti-CD19 and FITC-B10 (a marker for Breg) and counted via flowcytometry.

CD19^+ B cells = test: Spleen B cells in the EAE experiment (flow cytometry); format: in vivo, mice; conditions: day 15, MEDI-551 treated group
Source text: To better illustrate the mechanism of JY108 in ameliorating EAE symptoms, the spleen B cells in the EAE experiment were examined on day 15, using the same method described in Example 9.

EAE model mice = test: EAE model, head-to-head comparison of JY108 to MEDI-551 (Example 9); format: in vivo
Protocol: MEDI-551 (Inebilizumab) is an anti-CD19 monoclonal antibody currently under clinical trial for treating MS. […] For head-to-head comparison, EAE model in this experiment were constructed in the same way as described in Example 8 and MEDI-551 treated group (a single i.v. injection of 250 μg/animal) was included in the experiment. On Day 12 after generation of the EAE model, the male animals were randomly grouped into 4 groups (n=7): MEDI-551 treated group, model group (control), two groups treated with JY108 at 60 μg/animal and at 80 μg/animal with 5 doses in total (Day 14, Day 15, Day 17, Day 19 and Day 21). The clinical scores were recorded for each animal on daily basis (except Day 18). Female mice were grouped similarly (n=7) after day 11 of EAE induction and treated with JY108 (30, 50, 75 μg/animal) and MEDI551 (250 μg/animal).

MOG specific B cells = test: ELISPOT of residual MOG specific B cells in spinal cord; format: in vivo, mice
Protocol: Since MOG specific B cells are the major source of autoantibodies for CNS myelination damage, ELISPOT was performed by following the protocol provided by the vendor's manual to compare the residual MOG specific B cells in the spinal cord of the tested animals.

B1: MEDI-551: anti-CD19 monoclonal antibody currently under clinical trial for treating MS (antibody, chains of the INN, looked up, V domains shown)
VH: EVQLVESGGGLVQPGGSLRLSCAASGFTFSSSWMNWVRQAPGKGLEWVGRIYPGDGDTNYNVKFKGRFTISRDDSKNSLYLQMNSLKTEDTAVYYCARSGFITTVRDFDYWGQGTLVTVSS
VL: EIVLTQSPDFQSVTPKEKVTITCRASESVDTFGISFMNWFQQKPDQSPKLLIHEASNQGSGVPSRFSGSGSGTDFTLTINSLEAEDAATYYCQQSKEVPFTFGGGTKVEIK
Q: For B1, which “EAE symptoms of male mice” value (EAE model; administered on day 7 after EAE induction (Chen 2014)) is on record?
A: able to delay the EAE symptoms

Q: What about the “efficacy in EAE model versus anti-CD20 antibody” value (EAE model; pre-clinical results) of the same molecule?
A: more effective than marketed monoclonal anti-CD20 antibody

Q: And the “effect on Breg cells” value (Breg cells)?
A: little effect

Q: And the “CD19^+ B cells in spleen” value (CD19^+ B cells)?
A: almost completely eliminated

Q: And the “EAE symptoms (clinical score)” value (EAE model mice; female mice, 250 μg/animal)?
A: not effective

Q: And the “EAE symptoms (clinical score)” value (EAE model mice; male mice, single i.v. 250 μg/animal on day 14)?
A: did not show any therapeutic effect

Q: And the “MOG specific B cells in the spinal cord” value (MOG specific B cells)?
A: depleted MOG specific B cells effectively
